Measurements published in the supplement of paper PMC10724198.
± gives the standard deviation of the averaged measurements.

Experiments:
Saccharomyces cerevisiae [1] = assay: protein stability index of tFT-peptide fusion (C-terminal peptide) (PSI (0-1 scale)); higher = more stable (slower turnover)
Method: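 MPS profiling in S. cerevisiae of the tFT-X12 degron library: putative degron peptides plus stable controls, 12 aa, fused to the C-terminus of a sfGFP-mCherry timer. Cells are FACS-sorted into 8 mCherry/sfGFP bins and deep-sequenced. PSI runs from 0 (unstable) to 1 (stable). Backgrounds are wild type, das1Δ and doa10Δ at 30 °C, and wild type, das1Δ, cdc34-1 and cdc53-1 at 37 °C; 2-3 technical replicates each.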

Saccharomyces cerevisiae [2] = assay: as above; conditions: genetic background: wild type; temperature: 30 C
[3] = genetic background: cdc34-1, temperature: 37 C
[4] = genetic background: cdc53-1, temperature: 37 C
[5] = genetic background: das1 deletion, temperature: 30 C
[6] = genetic background: das1 deletion, temperature: 37 C
[7] = genetic background: doa10 deletion, temperature: 30 C
[8] = genetic background: wild type, temperature: 30 C
[9] = genetic background: wild type, temperature: 37 C
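Note: PSI is a weighted mean of sequencing reads over stability bins, variants kept only with over 10 reads, mCherry proximal and sfGFP distal, peptide attached via GGGS linker.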

Sequence	protein stability index (Saccharomyces cerevisiae [1]; [3])	protein stability index (Saccharomyces cerevisiae [1]; [4])	protein stability index (Saccharomyces cerevisiae [1]; [5])	protein stability index (Saccharomyces cerevisiae [1]; [6])	protein stability index (Saccharomyces cerevisiae [1]; [7])	protein stability index (Saccharomyces cerevisiae [1]; [8])	protein stability index (Saccharomyces cerevisiae [1]; [9])	protein stability index (Saccharomyces cerevisiae [2])
SRRSIGAYLFVS	0.693 ± 0.053	0.761 ± 0.029	0.635 ± 0.039	0.768 ± 0.031	0.178 ± 0.013	0.208 ± 0.018	0.411 ± 0.025	0.339 ± 0.026
SRSFWHAIVFLA	0.373 ± 0.043	0.589 ± 0.015	0.542 ± 0.026	0.649 ± 0.0067	0.0822 ± 0.036	0.0959 ± 0.028	0.0963 ± 0.018	0.122 ± 0.085
SRWMWFDWLRRA	0.644 ± 0.027	0.736 ± 0.028	0.686 ± 0.026	0.747 ± 0.029	0.281 ± 0.012	0.295 ± 0.0095	0.541 ± 0.0019	0.417 ± 0.065
SSCFLLFRVVWR	0.285 ± 0.01	0.321 ± 0.0088	0.257 ± 0.03	0.436 ± 0.0013	0.292 ± 0.005	0.244 ± 0.026	0.412 ± 0.016	0.367 ± 0.011
SSFDFVVSLCIY	0.501 ± 0.044	0.526 ± 0.052	0.39 ± 0.021	0.49 ± 0.015	0.347 ± 0.019	0.36 ± 0.013	0.476 ± 0.014	0.454 ± 0.041
STSSVMVFLRMC	0.5544 ± 0.0036	0.681 ± 0.038	0.601 ± 0.013	0.708 ± 0.036	0.14 ± 0.003	0.124 ± 0.01	0.161 ± 0.042	0.281 ± 0.057
SVAGFFLLLLLS	0.3561 ± 0.0034	0.397 ± 0.0096	0.305 ± 0.036	0.487 ± 0.02	0.191 ± 0.0079	0.193 ± 0.029	0.338 ± 0.0072	0.285 ± 0.012
SVECLCLFVACR	0.1923 ± 0.00067	0.254 ± 0.0049	0.193 ± 0.026	0.3432 ± 0.0011	0.155 ± 0.0075	0.184 ± 0.025	0.288 ± 0.0032	0.259 ± 0.013
SVFGVRARFGSV	0.766 ± 0.0082	0.803 ± 0.013	0.709 ± 0.018	0.781 ± 0.027	0.707 ± 0.046	0.724 ± 0.018	0.7738 ± 0.0016	0.756 ± 0.014
SVFVVVVLVFWY	0.221 ± 0.042	0.3 ± 0.039	0.22 ± 0.029	0.33 ± 0.024	0.211 ± 0.018	0.22 ± 0.029	0.316 ± 0.016	0.269 ± 0.0066
SVIAYTKPLWFR	0.4205 ± 0.0039	0.3736 ± 0.0027	0.351 ± 0.032	0.498 ± 0.009	0.658 ± 0.02	0.361 ± 0.016	0.486 ± 0.013	0.475 ± 0.0065
SVLRCPVILLAY	0.0423 ± 0.031	0.0232 ± 0.0025	0.0735 ± 0.036	0.0681 ± 0.008	0.0717 ± 0.0093	0.078 ± 0.017	0.0527 ± 0.02	0.0975 ± 0.012
SVSFFSLCTSSL	0.511 ± 0.033	0.596 ± 0.006	0.506 ± 0.023	0.541 ± 0.011	0.521 ± 0.033	0.507 ± 0.02	0.511 ± 0.021	0.487 ± 0.012
SWTAYSYQWVFF	0.407 ± 0.025	0.57 ± 0.0072	0.4972 ± 0.0028	0.577 ± 0.016	0.0469 ± 0.0093	0.0403 ± 0.018	0.215 ± 0.031	0.128 ± 0.014
SWVSVLSELLAC	0.224 ± 0.014	0.249 ± 0.017	0.251 ± 0.045	0.362 ± 0.0082	0.204 ± 0.0092	0.238 ± 0.025	0.2873 ± 0.0022	0.336 ± 0.022
SYCFCCCVLFWG	0.432 ± 0.019	0.517 ± 0.011	0.352 ± 0.028	0.559 ± 0.056	0.325 ± 0.011	0.357 ± 0.017	0.502 ± 0.018	0.407 ± 0.026
SYFSVTLFFTVI	0.281 ± 0.015	0.383 ± 0.0059	0.298 ± 0.032	0.419 ± 0.0015	0.252 ± 0.02	0.272 ± 0.016	0.386 ± 0.024	0.38872 ± 0.00027
SYRFFLFLAVFV	0.555 ± 0.014	0.554 ± 0.048	0.451 ± 0.034	0.574 ± 0.0017	0.442 ± 0.017	0.44 ± 0.012	0.5379 ± 0.0032	0.461 ± 0.021
SYVFCYICGVQS	0.607 ± 0.038	0.592 ± 0.025	0.411 ± 0.03	0.596 ± 0.015	0.338 ± 0.031	0.372 ± 0.018	0.552 ± 0.025	0.428 ± 0.06
SYVRLDLFFFLG	0.517 ± 0.069	0.591 ± 0.03	0.491 ± 0.012	0.5727 ± 0.0048	0.46 ± 0.038	0.472 ± 0.026	0.5357 ± 0.0037	0.568 ± 0.11

Sequence	protein stability index (Saccharomyces cerevisiae [1]; [3])	protein stability index (Saccharomyces cerevisiae [1]; [4])	protein stability index (Saccharomyces cerevisiae [1]; [5])	protein stability index (Saccharomyces cerevisiae [1]; [6])	protein stability index (Saccharomyces cerevisiae [1]; [7])	protein stability index (Saccharomyces cerevisiae [1]; [8])	protein stability index (Saccharomyces cerevisiae [1]; [9])	protein stability index (Saccharomyces cerevisiae [2])
TGVPNPSVAVMC	0.639 ± 0.039	0.623 ± 0.023	0.457 ± 0.025	0.6489 ± 0.005	0.446 ± 0.019	0.475 ± 0.028	0.625 ± 0.0069	0.498 ± 0.098
TIYGYEVTRKIG	0.645 ± 0.068	0.78 ± 0.025	0.621 ± 0.019	0.732 ± 0.031	0.0795 ± 0.011	0.11 ± 0.021	0.145 ± 0.018	0.155 ± 0.0023
TLLAFLIYLCFL	0.496 ± 0.023	0.515 ± 0.061	0.403 ± 0.023	0.546 ± 0.0095	0.402 ± 0.017	0.365 ± 0.028	0.499 ± 0.043	0.416 ± 0.012
TPVIPLIRVRDC	0.59 ± 0.034	0.701 ± 0.012	0.568 ± 0.017	0.691 ± 0.021	0.171 ± 0.011	0.225 ± 0.02	0.456 ± 0.0093	0.29 ± 0.023
TTGLLPSAYIWS	0.758 ± 0.05	0.753 ± 0.024	0.6494 ± 0.0043	0.768 ± 0.033	0.677 ± 0.0094	0.667 ± 0.028	0.716 ± 0.04	0.762 ± 0.011
TVWRRIRHACAH	0.597 ± 0.023	0.683 ± 0.0099	0.596 ± 0.013	0.702 ± 0.035	0.193 ± 0.0082	0.226 ± 0.015	0.365 ± 0.0047	0.376 ± 0.038
VAVYVGVGVSLG	0.454 ± 0.045	0.523 ± 0.048	0.311 ± 0.03	0.546 ± 0.004	0.2819 ± 0.0021	0.33 ± 0.017	0.511 ± 0.039	0.423 ± 0.0046
VAWFFFAYAFFM	0.361 ± 0.058	0.451 ± 0.015	0.321 ± 0.043	0.488 ± 0.015	0.251 ± 0.0032	0.266 ± 0.026	0.407 ± 0.0093	0.321 ± 0.0039
VCALHSAPLLIF	0.453 ± 0.029	0.484 ± 0.017	0.352 ± 0.034	0.496 ± 0.0065	0.307 ± 0.005	0.362 ± 0.012	0.467 ± 0.00048	0.462 ± 0.023
VCLVLVVVWWSG	0.219 ± 0.0066	0.277 ± 0.028	0.222 ± 0.021	0.338 ± 0.0041	0.1895 ± 0.0012	0.201 ± 0.027	0.313 ± 0.012	0.292 ± 0.024
VCRGWCVVRYIL	0.593 ± 0.015	0.699 ± 0.0099	0.574 ± 0.012	0.7226 ± 0.0024	0.173 ± 0.00096	0.18 ± 0.016	0.259 ± 0.0046	0.281 ± 0.064
VCVFNLTLVGTH	0.421 ± 0.05	0.462 ± 0.018	0.347 ± 0.027	0.449 ± 0.0089	0.358 ± 0.028	0.343 ± 0.018	0.4341 ± 0.0033	0.366 ± 0.023
VFFFFSLVNFRV	0.546 ± 0.061	0.574 ± 0.041	0.459 ± 0.042	0.606 ± 0.017	0.47 ± 0.05	0.419 ± 0.021	0.549 ± 0.03	0.486 ± 0.041
VFFLFLVFLTVV	0.198 ± 0.059	0.164 ± 0.017	0.23 ± 0.01	0.324 ± 0.018	0.222 ± 0.011	0.195 ± 0.029	0.263 ± 0.0089	0.259 ± 0.01
VFFRCVCCLSVF	0.388 ± 0.029	0.408 ± 0.042	0.327 ± 0.024	0.412 ± 0.014	0.2533 ± 0.00085	0.264 ± 0.015	0.352 ± 0.007	0.307 ± 0.026
VFFVLIFLLFLF	0.438 ± 0.025	0.448 ± 0.03	0.4 ± 0.03	0.46 ± 0.012	0.41 ± 0.0085	0.353 ± 0.05	0.469 ± 0.0008	0.421 ± 0.011
VFGSVAALRLLM	0.666 ± 0.048	0.73216 ± 0.00032	0.6508 ± 0.0024	0.7704 ± 0.003	0.193 ± 0.007	0.208 ± 0.042	0.414 ± 0.036	0.378 ± 0.095
VFLFSWYIFSVF	0.206 ± 0.0065	0.341 ± 0.071	0.234 ± 0.031	0.42493 ± 0.00033	0.1066 ± 0.00012	0.109 ± 0.03	0.169 ± 0.0034	0.184 ± 0.015
VFLRCRSLSMRV	0.475 ± 0.044	0.519 ± 0.014	0.397 ± 0.028	0.5352 ± 0.0026	0.409 ± 0.019	0.389 ± 0.013	0.529 ± 0.012	0.465 ± 0.03
